# Experimental data as given in patent US20150125397A1, “DUAL SPECIFIC BINDING PROTEINS DIRECTED AGAINST IMMUNE CELL RECEPTORS AND AUTOANTIGENS” (ABBVIE INC., priority 2013, published 2015).
# T1: mIgM (Mus musculus, UniProt P01872)
# T1 sequence (P01872 1-454): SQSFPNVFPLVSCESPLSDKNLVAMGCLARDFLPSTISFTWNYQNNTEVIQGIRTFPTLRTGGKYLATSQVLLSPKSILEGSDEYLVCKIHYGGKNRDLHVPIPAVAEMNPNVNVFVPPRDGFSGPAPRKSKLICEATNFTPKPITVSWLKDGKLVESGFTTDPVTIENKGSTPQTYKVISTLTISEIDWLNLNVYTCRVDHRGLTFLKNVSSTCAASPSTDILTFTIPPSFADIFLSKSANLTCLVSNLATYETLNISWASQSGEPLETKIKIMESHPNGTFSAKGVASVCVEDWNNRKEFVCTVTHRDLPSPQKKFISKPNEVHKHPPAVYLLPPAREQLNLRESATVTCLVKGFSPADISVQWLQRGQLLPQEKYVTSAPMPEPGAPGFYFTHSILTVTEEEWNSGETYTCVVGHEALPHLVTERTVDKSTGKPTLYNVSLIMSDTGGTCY
# B1: DVD3757: DVD-Ig: VD1 mIgM (B7.6), SS linker, VD2 DNA(PA4); heavy SEQ ID NO 60, light 61 (antibody)
# heavy: QVQLKESGPGLVKPSLTLSLTCTVSGFSLNGYGVIWVRQPPGKGLEWMGVIWGNGNTNYNSTLKSRLSISRDTSKSQVFLKMNNLQTEDTAMYFCARSENYYSSPGYFAYWGQGTLVTVSSASTKGPEVQLVESGGGLVKPGGSLKLSCVASGFTFSTYAMSWVRQTPTKRLEWVATISRGGVSTYYPDTVKGRFTISRDNAKNTLYLQMSSLRSEDTAMYYCARPPTIVTTWFAYWGQGTLVTVSS
# light: NTVMTQSPTSMFISVGDRVTMNCKASQNVGSDVDWYQQKTGQSPKLLISGTSNRYTGVPDRFTGSGSGTDFTLTISNMQAEDLAVYYCLQYNYNPTFGAGTKLELKRTVAAPDVVMTQTPLSLPVSLGDQASISCRSSQSLVHSNGNTYLHWYLQKPGQSPKLLIYKVSNRFSGVPDRFSGSGSGTDFTLKISRVEAEDLGAYFCSQSTHVPYTFGGPTRLEIKR
# B2: DVD3760: DVD-Ig: VD1 mIgM (B7.6), LS linker, VD2 DNA(PA4); heavy SEQ ID NO 66, light 67 (antibody)
# heavy: QVQLKESGPGLVKPSLTLSLTCTVSGFSLNGYGVIWVRQPPGKGLEWMGVIWGNGNTNYNSTLKSRLSISRDTSKSQVFLKMNNLQTEDTAMYFCARSENYYSSPGYFAYWGQGTLVTVSSASTKGPSVFPLAPEVQLVESGGGLVKPGGSLKLSCVASGFTFSTYAMSWVRQTPTKRLEWVATISRGGVSTYYPDTVKGRFTISRDNAKNTLYLQMSSLRSEDTAMYYCARPPTIVTTWFAYWGQGTLVTVSS
# light: B1 light
# B3: DVD3756: DVD-Ig: VD1 mIgM (B7.6), GS linker, VD2 DNA(PA4); heavy SEQ ID NO 58, light 59 (antibody)
# heavy: QVQLKESGPGLVKPSLTLSLTCTVSGFSLNGYGVIWVRQPPGKGLEWMGVIWGNGNTNYNSTLKSRLSISRDTSKSQVFLKMNNLQTEDTAMYFCARSENYYSSPGYFAYWGQGTLVTVSSGGGGSGGGGSEVQLVESGGGLVKPGGSLKLSCVASGFTFSTYAMSWVRQTPTKRLEWVATISRGGVSTYYPDTVKGRFTISRDNAKNTLYLQMSSLRSEDTAMYYCARPPTIVTTWFAYWGQGTLVTVSS
# light: NTVMTQSPTSMFISVGDRVTMNCKASQNVGSDVDWYQQKTGQSPKLLISGTSNRYTGVPDRFTGSGSGTDFTLTISNMQAEDLAVYYCLQYNYNPTFGAGTKLELKRGGSGGGGSGDVVMTQTPLSLPVSLGDQASISCRSSQSLVHSNGNTYLHWYLQKPGQSPKLLIYKVSNRFSGVPDRFSGSGSGTDFTLKISRVEAEDLGAYFCSQSTHVPYTFGGPTRLEIKR
# Test system: AM14 TLR9−/− B cells
# Test: [3H]thymidine incorporation, BCR/TLR9 stimulation of AM14 TLR9-/- B cells
# Type: cell-based, mouse
# Settings: at 5 mg/ml; 24 hours, then 6 hours pulse
# Excerpt: (§1) The AM14 B cell receptor (BCR) transgenic mouse has been described previously (Sweet et al. (2010) Autoimmun 43(8): 607-18). Briefly, AM14 is a BCR comprising the AM14 heavy chain and the Vk8 light chain that recognizes murine IgG2a (mIgG2a) of the “a” allotype. Between 95-98% of B cells in a mouse positive for the AM14 heavy chain and Vk8 light chain express the AM14 BCR. To generate AM14 B cells that are deficient in TLR9, TLR7 or FcγRIIB, the AM14 and Vk8 genes were bred to the appropriate knock out mice.
# (§2) Primary murine B cells were purified by positive selection using BD Imag™ CD45R/B220 magnetic particles (BD Biosciences, San Jose, Calif.). Briefly, B cells were cultured in RPMI containing, pencillin-streptomycin, β-mercaptoethanol, and 5% heat-inactivated fetal calf serum (FCS) in 96 well flat bottom plates at a density of 4×10^5 cells/well. For stimulation through the BCR and TLR9, B cells were treated with a titration of 0.3 μg/ml-0.03 μg/ml of PA4 or 5 μg/ml to 0.15 μg/ml of a DVD-Ig protein (DVD3751, DVD3752, DVD3754, DVD3755, DVD3759 and DVD3760), unless otherwise noted. Cells were also treated with 1 μg/ml 1826, an experimental ligand for TLR9, as a control. After 24 hours, the cells were pulsed for 6 hours with [3H]thymidine (Perkin Elmer, Waltham Mass.). Incorporation of [3H]thymidine was quantified via a liquid scintillation beta counter (Trilux 1450 MicroBeta, PerkinElmer) according to standard methods.
# (§3) DVD-Ig proteins DVD3751-DVD3760 were characterized by ^3H incorporation at […] according to the method of Example 2.6.
row,Molecule,3H incorporation AM14 TLR9−/−
1,B1,(382)
2,B2,(302)
3,B3,(459)

# Test system: AM14 WT B cells
# Test: [3H]thymidine incorporation, BCR/TLR9 stimulation of AM14 WT B cells
# Type: cell-based, mouse
# Design: key to 3H incorporation AM14 WT, relative result: (X)-(XXX) indicates relative results; (XX): (X)-(XXX) indicates relative results; (X)-(XXX) indicates relative results; level of 3H incorporation / 3H incorporation AM14 WT: dose or concentration left out as unconfirmed
# Settings: not given
# Excerpt: as §1, §2, §3
row,Molecule,"3H incorporation AM14 WT, relative result"
1,B1,(X)
2,B2,(X)
3,B3,(X)

# Same assay, conditions: 24 hours, then 6 hours pulse
row,Molecule,3H incorporation AM14 WT
1,B1,(4063)
2,B2,(4335)
3,B3,(7793)

# Target: T1, mIgM
# Test: IgM binding ELISA (mouse IgM)
# Settings: among DVD3751-DVD3760
# Protocol: Reactivity of the DVD-Ig proteins with mIgM was determined by enzyme-linked immunosorbent assay (ELISA). Briefly, each well of an Ultra Cruz 96 well microtiter plate (Santa Cruz Biotechnology, Dallas, Tex.) was coated with mIgM at a concentration of 1 μg/ml in 100 μl of PBS. The plate was covered in plastic wrap and incubated overnight at 4° C. Each well of the plate was then washed 3× with 300 μl of PBST. After the final wash, 200 μl of blocking buffer (1% BSA in PBS) was added to each well and the plate incubated at RT for 2 hours. The plate was then washed as above. Rows B-H of the microtiter plate were filled with 100 μl of dilution buffer (1% BSA in PBST). The DVD-Ig proteins were then diluted to […] in dilution buffer and 147 μl of a DVD-Ig protein was added in duplicate to row A of a 96 well plate. For a ½ log dilution, 47 μl was transferred from row A to row B. The pipette tips were replaced with clean tips and 47 μl from row B was transferred to row C. The serial transfers were repeated as above until row G. To assess the binding of the secondary detection reagent to the coated IgM, the final transfer 47 μl was only transferred from G1-G10 to H1-H10 and wells H11 and H12 were left containing 100 μl of dilution buffer. To maintain a 100 μl assay volume, 47 μl was removed from wells H1-H10 and G11-G12 and discarded. After the serial dilution was completed, the plate was incubated for 1-2 hours at RT. The plate was washed as above and then 100 μl of horseradish peroxidase conjugated goat α-hIgG Fc specific, diluted 1:3,000 in dilution buffer, was added to each well. The plate was incubated for 1 hour at RT and then washed 4× as above. The plate was developed by adding 100 μl of 3′,3′,5′,5′-Tetramethylbenzidine (TMB) substrate solution to each well and incubating the plate in the dark for 10-15 minutes. The enzymatic reaction was stopped by adding 100 μl of 1M H2SO4 to each well. The plate was read at 450 nm on an EnVision 2102 multilabel reader (Perkin Elmer, Waltham, Mass.).
# DVD-Ig proteins DVD3751-DVD3760 were characterized by IgM binding assay at half-log dilution starting at 10 μg/ml-0.01 μg/ml according to the method of Example 2.5.
# IgM binding ELISA: Titrations of the DVD-Ig™ proteins (10 μg/ml to 0.01 μg/ml) were added to ELISA plates coated with murine IgM. Bound antibody was detected with biotinylated anti-human IgG and streptavidin-HRP. EC50 were calculated from the titration curve using Prism6.
row,Molecule,potency in IgM binding assay
1,B1,highest potency
2,B2,highest potency
3,B3,highest potency

# Same assay, conditions: mIgM-coated ELISA; half-log dilution 10 μg/ml-0.01 μg/ml
row,Molecule,IgM Binding EC50 [µg/mL]
1,B1,0.04178
2,B2,0.03529
3,B3,0.0331

# Test system: DNA
# Test: Antinuclear antibody (ANA) test
# Type: binding
# Settings: ANA staining at 10 μg/ml
# Protocol: The cloned BWR4 and PA4 antibodies as well as the DVD-Ig proteins were tested for ANA reactivity using the ANA test kit. Briefly, the DVD-Ig proteins and antibodies were diluted to […] in blocking buffer (1% BSA in PBS). The DVD-Ig proteins and antibodies were added to separate wells of an ANA slide at 50 μl/well and incubated in a moist chamber for 2 hours at room temperature (RT). The wells were then washed 3× with PBS. To detect bound antibodies, Alexa Fluor 488 conjugated goat α-human IgG (α-hIgG) was then added at a dilution of 1:1,000 and the slide incubated in a moist chamber for 1 hour. Unbound detecting antibody was removed by immersing the slide in a jar containing PBS and incubating for 10 minutes at RT with gentle rocking. The prior step was repeated 2× and 10 μl of Prolong® Gold Antifade was added to each well and a 24 mm×60 mm #1 cover glass seated on top. The covered slide was incubated overnight at RT and then sealed by applying clear nail polish to the edges. Binding of the DVD-Ig proteins and antibodies to the slides was assessed by fluorescence microscopy.
# DVD-Ig proteins DVD3751-DVD3760 were characterized by antinuclear antibody (ANA) staining at 10 μg/ml according to the method of Example 2.4.
# ANA: HEp-2 human tissue culture substrate slides were incubated with 5 μg/ml of the anti-DNA-IgG2a or the DVD-Ig™ binding protein for 2 hours at RT. The slides were washed and bound antibodies were detected with Alexa-488 goat anti-human antibody or DyLight 488 goat anti-mouse antibody.
row,Molecule,ANA score
1,B1,1
2,B2,1
3,B3,1
